Results: the Immune Epitope Database (IEDB)

Assays:
Assay in all cases: IEDB peptide-MHC binding, purified MHC/competitive/radioactivity; filed as Kd, often an IC50 or EC50 that approximates it; ≥ and ≤ were set here for values at or beyond the usual limits of such assays
[1] = target: HLA-A*02:06
[2] = target: HLA-A*02:03
[3] = target: HLA-A*02:02
[4] = target: HLA-A*33:01
[5] = target: HLA-A*03:01
[6] = target: HLA-A*31:01
[7] = target: HLA-A*11:01
[8] = target: HLA-A*68:01
[9] = source organism: Vaccinia virus WR
[10] = source organism: Vaccinia virus Copenhagen
[11] = source organism: SARS coronavirus Tor2
[12] = source organism: Mammarenavirus brazilense
[13] = source organism: Mammarenavirus lassaense
[14] = source organism: Dengue virus 1 Brazil/97-11/1997
[15] = source organism: Lassa virus Josiah
[16] = source organism: Lymphocytic choriomeningitis virus (strain Armstrong)

Which results are given for SLALKNSQA?
Kd [1, 9]: 19 µM; Kd [2, 9]: 0.459 µM; Kd [3, 9]: 0.662 µM

For SLLKETIQK, which Kd [4, 10] is on record?
The Kd was 7.38 µM.

And the Kd [5, 10]?
The Kd was 0.0396 µM.

What about the Kd [6, 10] of the same sequence?
Its Kd is at least 20 µM.

And the Kd [7, 10]?
The Kd was 0.0168 µM.

And the Kd [8, 10]?
The Kd was 3.48 µM.

SMMVILPDKI was tested. Which Kd [1, 9] did it give?
The Kd was 0.00567 µM.

What about the Kd [2, 9] of the same sequence?
The Kd was 0.0192 µM.

What about the Kd [3, 9] of the same sequence?
Its Kd is 0.0283 µM.

SMQNCLLRLK was tested. Which Kd [4, 11] did it give?
Its Kd is 0.725 µM.

What about the Kd [5, 11] of the same sequence?
Its Kd is 0.00994 µM.

What about the Kd [6, 11] of the same sequence?
Its Kd is 0.0181 µM.

What about the Kd [7, 11] of the same sequence?
Its Kd is 0.0178 µM.

What about the Kd [8, 11] of the same sequence?
Its Kd is 1.28 µM.

What does the source list for SMSQELAELL?
Kd [1, 9]: 0.474 µM; Kd [2, 9]: 0.0545 µM; Kd [3, 9]: 0.00619 µM

With STSAADIKR as the sequence, how does the Kd [4, 9] read?
Its Kd is at least 22.1 µM.

And the Kd [5, 9]?
Its Kd is at least 30.4 µM.

What about the Kd [6, 9] of the same sequence?
The Kd was 1.3 µM.

And the Kd [7, 9]?
Its Kd is 0.0132 µM.

What about the Kd [8, 9] of the same sequence?
Its Kd is 0.00519 µM.

Which Kd [1, 9] does the source give for STVDVRNIVT here?
Its Kd is 1.57 µM.

And the Kd [2, 9]?
The Kd was 11.6 µM.

And the Kd [3, 9]?
Its Kd is 3.06 µM.

For SVDAMIHKT, which Kd [1, 9] is on record?
Its Kd is 10.6 µM.

What about the Kd [2, 9] of the same sequence?
The Kd was 3.66 µM.

And the Kd [3, 9]?
Its Kd is 5.02 µM.

SVSAKQLRTR was tested. Which Kd [4, 9] did it give?
The Kd was 5.59 µM.

What about the Kd [5, 9] of the same sequence?
The Kd was 0.168 µM.

And the Kd [6, 9]?
The Kd was 0.7 µM.

What about the Kd [7, 9] of the same sequence?
Its Kd is 0.0908 µM.

What about the Kd [8, 9] of the same sequence?
Its Kd is 0.148 µM.

For SVSIILANER, which Kd [4, 9] is on record?
Its Kd is 1.64 µM.

And the Kd [5, 9]?
Its Kd is 2.52 µM.

What about the Kd [6, 9] of the same sequence?
The Kd was 0.655 µM.

And the Kd [7, 9]?
Its Kd is 0.0771 µM.

And the Kd [8, 9]?
Its Kd is 0.000432 µM.

What does the source list for TALAKCNLDH?
Kd [4, 12]: ≥ 46.9 µM; Kd [5, 12]: ≥ 70 µM; Kd [6, 12]: 0.878 µM; Kd [7, 12]: ≥ 69.7 µM; Kd [8, 12]: ≥ 35.1 µM

What does the source list for TCQGSDDIKK?
Kd [4, 13]: ≥ 24.2 µM; Kd [5, 13]: ≥ 70 µM; Kd [6, 13]: 6.33 µM; Kd [7, 13]: 13 µM; Kd [8, 13]: 4.45 µM

Which results are given for TIDNIVTSL?
Kd [1, 9]: 2.73 µM; Kd [2, 9]: 1.04 µM; Kd [3, 9]: 0.178 µM

How did the Kd [1, 9] turn out when TIEDDKIVTM was run?
The Kd was at least 26.1 µM.

And the Kd [2, 9]?
Its Kd is 17.2 µM.

And the Kd [3, 9]?
The Kd was 17 µM.

TIGLSLVASV was tested. Which Kd [2, 14] did it give?
The Kd was 0.0128 µM.

With TIISEEYLSK as the sequence, how does the Kd [4, 9] read?
The Kd was 8.85 µM.

And the Kd [5, 9]?
The Kd was 0.0395 µM.

And the Kd [6, 9]?
Its Kd is 6.71 µM.

What about the Kd [7, 9] of the same sequence?
The Kd was 0.00174 µM.

And the Kd [8, 9]?
The Kd was 0.0166 µM.

With TLNVLAWLY as the sequence, how does the Kd [4, 11] read?
The Kd was 7.37 µM.

And the Kd [5, 11]?
Its Kd is 0.0365 µM.

And the Kd [6, 11]?
Its Kd is 2.72 µM.

And the Kd [7, 11]?
The Kd was 0.025 µM.

And the Kd [8, 11]?
The Kd was 13.2 µM.

How did the Kd [4, 11] turn out when TQWSLFFFVY was run?
Its Kd is 1.37 µM.

And the Kd [5, 11]?
The Kd was 2.51 µM.

What about the Kd [6, 11] of the same sequence?
The Kd was 1.58 µM.

And the Kd [7, 11]?
Its Kd is 0.358 µM.

What about the Kd [8, 11] of the same sequence?
Its Kd is 6.71 µM.

How did the Kd [4, 9] turn out when TSLAIKNYY was run?
Its Kd is at least 29.3 µM.

What about the Kd [5, 9] of the same sequence?
The Kd was 18.2 µM.

What about the Kd [6, 9] of the same sequence?
Its Kd is 2.26 µM.

And the Kd [7, 9]?
Its Kd is 0.294 µM.

And the Kd [8, 9]?
The Kd was 1.67 µM.

Which Kd [4, 11] does the source give for TSTGNYNYK here?
Its Kd is 12.2 µM.

And the Kd [5, 11]?
The Kd was 1.46 µM.

What about the Kd [6, 11] of the same sequence?
Its Kd is 0.151 µM.

And the Kd [7, 11]?
The Kd was 0.0211 µM.

What about the Kd [8, 11] of the same sequence?
The Kd was 0.0372 µM.

Which Kd [4, 9] does the source give for TTLLNETAK here?
Its Kd is 8.06 µM.

And the Kd [5, 9]?
Its Kd is 0.201 µM.

What about the Kd [6, 9] of the same sequence?
Its Kd is 3.56 µM.

What about the Kd [7, 9] of the same sequence?
The Kd was 0.0131 µM.

What about the Kd [8, 9] of the same sequence?
Its Kd is 0.0102 µM.

For TTTSTALGK, which Kd [4, 11] is on record?
The Kd was at least 77.7 µM.

What about the Kd [5, 11] of the same sequence?
Its Kd is 0.718 µM.

And the Kd [6, 11]?
Its Kd is 1.08 µM.

What about the Kd [7, 11] of the same sequence?
Its Kd is 0.0318 µM.

What about the Kd [8, 11] of the same sequence?
The Kd was 0.028 µM.

Which Kd [4, 9] does the source give for TTYDFLARK here?
The Kd was 8.53 µM.

And the Kd [5, 9]?
The Kd was 0.0474 µM.

What about the Kd [6, 9] of the same sequence?
Its Kd is 0.0811 µM.

What about the Kd [7, 9] of the same sequence?
Its Kd is 0.000395 µM.

What about the Kd [8, 9] of the same sequence?
Its Kd is 0.105 µM.

Which Kd [4, 9] does the source give for TVKMGAFMY here?
Its Kd is 8.71 µM.

And the Kd [5, 9]?
The Kd was 0.523 µM.

What about the Kd [6, 9] of the same sequence?
The Kd was 3.04 µM.

And the Kd [7, 9]?
The Kd was 0.0253 µM.

What about the Kd [8, 9] of the same sequence?
Its Kd is 0.0489 µM.

What does the source list for VFKGFSDKVR?
Kd [4, 9]: 0.925 µM; Kd [5, 9]: ≥ 70.1 µM; Kd [6, 9]: 0.201 µM; Kd [7, 9]: 2.64 µM; Kd [8, 9]: ≥ 26.8 µM

VLEIINDKGK was tested. Which Kd [4, 9] did it give?
The Kd was at least 70 µM.

And the Kd [5, 9]?
Its Kd is 10.1 µM.

What about the Kd [6, 9] of the same sequence?
Its Kd is at least 70 µM.

And the Kd [7, 9]?
The Kd was 2.52 µM.

What about the Kd [8, 9] of the same sequence?
Its Kd is at least 70.2 µM.

VLFSGVSWT was tested. Which Kd [2, 14] did it give?
Its Kd is 0.0601 µM.

What does the source list for VLLRKNGNK?
Kd [4, 11]: 9.64 µM; Kd [5, 11]: 0.0422 µM; Kd [6, 11]: 2.36 µM; Kd [7, 11]: 1.66 µM; Kd [8, 11]: ≥ 26.1 µM

How did the Kd [1, 9] turn out when VLQQNNSFI was run?
Its Kd is 8.68 µM.

And the Kd [2, 9]?
The Kd was 0.249 µM.

What about the Kd [3, 9] of the same sequence?
Its Kd is 0.1 µM.

How did the Kd ([1]; source organism: Dengue virus 4 Singapore/8976/1995) turn out when VQADMGCVV was run?
The Kd was 0.0233 µM.

Which Kd [1, 14] does the source give for VQYENLKYSV here?
Its Kd is 0.0312 µM.

How did the Kd [4, 9] turn out when VSDLYTSMR was run?
Its Kd is 4.2 µM.

And the Kd [5, 9]?
Its Kd is 2.49 µM.

And the Kd [6, 9]?
Its Kd is 1.31 µM.

What about the Kd [7, 9] of the same sequence?
The Kd was 4.65 µM.

And the Kd [8, 9]?
The Kd was 0.651 µM.

VTFLLLCGR was tested. Which Kd [4, 15] did it give?
The Kd was 0.132 µM.

And the Kd [5, 15]?
The Kd was 3.06 µM.

What about the Kd [6, 15] of the same sequence?
Its Kd is 0.0184 µM.

What about the Kd [7, 15] of the same sequence?
Its Kd is 0.0182 µM.

And the Kd [8, 15]?
The Kd was 0.0138 µM.

For VVVGDIIGV, which Kd ([1]; source organism: Dengue virus 3 Martinique/1243/1999) is on record?
Its Kd is 0.00438 µM.

YCNYSKFWYL was tested. Which Kd [1, 16] did it give?
The Kd was 1.06 µM.

What about the Kd [2, 16] of the same sequence?
The Kd was 9.63 µM.

What about the Kd [3, 16] of the same sequence?
The Kd was 1.11 µM.

YITDDSDDY was tested. Which Kd [4, 9] did it give?
The Kd was at least 77.7 µM.

What about the Kd [5, 9] of the same sequence?
Its Kd is at least 78 µM.

And the Kd [6, 9]?
The Kd was at least 77.9 µM.

What about the Kd [7, 9] of the same sequence?
The Kd was at least 77.9 µM.

And the Kd [8, 9]?
The Kd was at least 77.7 µM.

For YSMCTGKFKV, which Kd ([1]; source organism: Dengue virus 2 16681-PDK53) is on record?
Its Kd is 0.0544 µM.

YTFAISYCR was tested. Which Kd [4, 10] did it give?
The Kd was 0.00173 µM.

And the Kd [5, 10]?
Its Kd is 2.76 µM.

What about the Kd [6, 10] of the same sequence?
The Kd was 0.000933 µM.

And the Kd [7, 10]?
The Kd was 0.00335 µM.

What about the Kd [8, 10] of the same sequence?
Its Kd is 0.000418 µM.

With YTISSESLVY as the sequence, how does the Kd [4, 9] read?
Its Kd is at least 70 µM.

What about the Kd [5, 9] of the same sequence?
Its Kd is 0.831 µM.

What about the Kd [6, 9] of the same sequence?
Its Kd is at least 27.9 µM.

What about the Kd [7, 9] of the same sequence?
Its Kd is 0.0318 µM.

And the Kd [8, 9]?
Its Kd is 0.0214 µM.
